Experimental data: the supplement of paper PMC12855868

B1: library; numbered along this chain (parent)
chain: MAAAGGARLLRAASAVLGGPAGRWLHHAGSRAGSSGLLRNRGPGGSAEASRSLSVSARARSSSEDKITVHFINRDGETLTTKGKVGDSLLDVVVENNLDIDGFGACEGTLACSTCHLIFEDHIYEKLDAITDEENDMLDLAYGLTDRSRLGCQICLTKSMDNMTVRVPETVADARQSIDVGKTS

Variants of: B1
Assay: scaled log2 fold change in cell abundance, elesclomol vs control (0 = silent mean, 1 = nonsense mean) (scaled log2 ratio); higher = higher viability under elesclomol (loss of FDX1 cuproptosis function)
Settings: glucose 10 mM
[1] = with ABC1 FDX1 KO, elesclomol 5 nM, 14 days
[2] = with HEK293T FDX1 KO, elesclomol 40 nM, 11 days
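Note: variant abundance is its share of total variant reads in each endpoint sample, from next-generation sequencing of the integrated ORF PCR-amplified out of genomic DNA.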

Variant | scaled log2 fold change [1] | scaled log2 fold change [2]
T145I | 0.244 | -0.228
T145K | -0.0518 | -0.472
T145L | 0.169 | 0.152
T145M | 0.318 | -0.375
T145N | 0.291 | -0.855
T145P | 0.209 | -0.123
T145Q | 0.226 | -1.28
T145R | 0.0604 | -0.726
T145S | 0.00135 | 
T145V | 0.027 | -0.443
T145W | 0.478 | -0.147
T145Y | 0.224 | 0.0425
D146A | 0.0826 | -0.539
D146C | 0.0801 | 0.758
D146E | 0.138 | 0.321
D146F | -0.0311 | 0.866
D146G | -0.311 | 0.974
D146H | -0.228 | -0.639
D146I | -0.109 | 0.0633
D146K | 0.0568 | -0.151
D146L | 0.0782 | -0.302
D146M | -0.332 | 
D146N | -0.093 | 0.538
D146P | -0.219 | 0.177

Variant | scaled log2 fold change [1] | scaled log2 fold change [2]
D146Q | -0.0405 | -0.462
D146R | -0.0353 | 
D146S | -0.00471 | 0.0302
D146T | 0.301 | -0.841
D146V | -0.227 | -0.76
D146W | 0.114 | 0.978
D146Y | 0.1 | 0.0545
R147A | 0.283 | 
R147C | -0.148 | 0.356
R147D | 0.339 | 0.314
R147E | 0.159 | -0.255
R147F | 0.104 | -0.384
R147G | -0.409 | 0.00185
R147H | -0.0226 | -0.215
R147I | 0.215 | -0.172
R147K | -0.354 | -0.267
R147L | -1.37 | -0.851
R147M | 0.167 | -0.232
R147N | 0.171 | 0.904
R147P | 0.35 | -0.0221
R147Q | 0.0113 | -0.0201
R147S | -0.721 | -0.596
R147T | -0.344 | -0.0355
R147V | 0.177 | 0.544

Variant | scaled log2 fold change [1] | scaled log2 fold change [2]
R147W | 0.275 | -0.126
R147Y | 0.159 | 0.243
S148A | -0.395 | 0.0871
S148C | 0.0537 | 0.319
S148D | 0.488 | 0.491
S148E | 0.489 | 1.23
S148F | 0.404 | 0.537
S148G | -0.0749 | -0.519
S148H | 0.322 | -0.35
S148I | 0.277 | 1.81
S148K | 0.496 | -0.0219
S148L | 0.386 | 0.434
S148M | 0.0932 | 0.216
S148N | 0.122 | 0.397
S148P | 0.532 | 0.268
S148Q | 0.313 | 0.39
S148R | 0.331 | 0.333
S148T | 0.485 | 0.124
S148V | 0.0179 | 0.35
S148W | 0.632 | 0.172
S148Y | 0.363 | -0.279
R149A | 0.375 | 0.982
R149C | 0.906 | 1.99
R149D | 1.08 | 0.943

Variant | scaled log2 fold change [1] | scaled log2 fold change [2]
R149E | 1.13 | 1.11
R149F | 0.872 | 1.08
R149G | 0.658 | 0.436
R149H | 0.625 | 0.597
R149I | 0.876 | 0.53
R149K | 0.66 | -0.00324
R149L | 0.679 | 0.937
R149M | 0.689 | 0.499
R149N | 1 | 1.05
R149P | 1.05 | 0.985
R149Q | 0.899 | 1.02
R149S | 0.96 | 0.508
R149T | 1.01 | 0.998
R149V | 0.231 | 0.529
R149W | 1.07 | 1.1
R149Y | 0.871 | 0.839
L150A | 0.335 | 0.397
L150C | -0.0973 | 0.196
L150D | 1.09 | 0.982
L150E | 0.981 | 1.27
L150F | 0.244 | -0.211
L150G | 0.757 | 0.513
L150H | 0.563 | -0.201
L150I | 0.2 | -0.337

Variant | scaled log2 fold change [1] | scaled log2 fold change [2]
L150K | 1.24 | 1.51
L150M | -0.0616 | -0.103
L150N | 0.899 | 0.249
L150P | 1.09 | 0.82
L150Q | 0.537 | 0.364
L150R | 1.05 | 0.41
L150S | 0.479 | 0.331
L150T | 0.595 | -0.16
L150V | 0.447 | -0.147
L150W | 1.06 | 1.11
L150Y | 0.721 | 0.392
G151A | 0.241 | 0.25
G151C | 0.338 | -0.416
G151D | 1.22 | 1.19
G151E | 1.06 | 1.01
G151F | 1.04 | 1.32
G151H | 1.27 | 1.31
G151I | 1.07 | 0.797
G151K | 1.04 | 0.728
G151L | 1 | 0.743
